From the nanobody polyreactivity screen of Harvey et al. (2022)

Assay: yeast display, Sf9 membrane polyspecificity reagent, FACS + sequencing; frameworks hold sequencing errors
Summary of the method: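 Nanobodies came from a synthetic yeast display library in Saccharomyces cerevisiae BJ5465, induced with galactose for 36–48 hours and stained for 1 hour at 4 °C with 10% biotinylated, detergent-solubilized Sf9 membrane reagent. Cells were enriched on streptavidin microbeads and then FACS-sorted, with low and high (top ~1%) gates set on anti-HA fluorescence for expression and streptavidin fluorescence for reagent binding. Each polyreactivity label reflects the gate a clone came from. Genes were amplified by colony PCR, sequenced by MiSeq 2 × 250 and filtered by CDR length.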

Sequence | polyreactivity (PSR sort gate)
QVQLVESGGGLVQAGGSLRLSCAASGRIFSAYAMGWYRQAPGKEREFVAAITQSGGSTYYADSVKGRFTISRDNAKNTVYVQMNSLKPEDTAVYYCAAGDAYYTEALPFGEYDYWGQGTQVTVSS | low polyreactivity
QVQLVESGGGLVQAGGSLRLSCAASGRIFSEYAMGGDRQAPGKERELVATITSGDSTIYADSVKGRFTISRDNAKNTVYVQMNSLKPDDTAVYYCNPDRFADYDYWGHGTQVTVSS | low polyreactivity
QVQLVESGGGLVQAGGSLRLSCAASGRIFSFYTMGWYRQAPGKERELVAAITWSGGSTYYADSVKGRFTISRDNAKNTVYLQMNSLKPEDTAVYYCAADFYLGPTWYYYWGQGTQVTVSS | high polyreactivity
QVQLVESGGGLVQAGGSLRLSCAASGRIFSGNAMGWYRQAPGKERELVAAISWGGGRTYYADSVKGRFTISRDNAKNTVYLQMNSLKPEDTAVFYCNTVRQRARFTKVDYWGQGTQVTVSS | high polyreactivity
QVQLVESGGGLVQAGGSLRLSCAASGRIFSGNGMGWYRQATGKERELVASITWSGTSTYYADSVKGGFTISRDNAKNTVYLQMNSLKPEDTAVYYCNTRTSRRIWYSKSGKRYDYWGQGTQVTVSS | high polyreactivity
QVQLVESGGGLVQAGGSLRLSCAASGRIFSGYALGWYRQAPGKERELVAAISQRGGSTTYADSVKGRFTISRDNAKNTVYLQMNSLKPEDTAVYYCAKRYTYPSGYDYWGQGTEVTVSS | low polyreactivity
QVQLVESGGGLVQAGGSLRLSCAASGRIFSGYAMGCYRQAPGKERELVAAITSRSGSTYYADSVKGRFTISRDNAKKTVYLQMNSLKPEDTAVYYCAAEYVRFYWYTSDYWGQGTQVTVSS | low polyreactivity
QVQLVESGGGLVQAGGSLRLSCAASGRIFSGYAMGSYRQAPGKERELVAAITSVGSTNYADSVKGLFTISRDNAKNTVYLQMNSLKPEDTAVFNCAAKRYRPKYEYYYWGLGTQVTVSS | high polyreactivity
QVQLVESGGGLVQAGGSLRLSCAASGRIFSGYAMGWYRQAPGKERELVAAITSRSGSTYYADSVKGRFTISRDNAKNTVYFQMNSLKPEDTAVYYCAAEYVRFYWYTSDYWGQGTQVTVSS | low polyreactivity
QVQLVESGGGLVQAGGSLRLSCAASGRIFSGYAMGWYRQAPGKERELVAAITSVGSTNYADSVKGRFTISRDNAKNTVYLQMNSLKPEDTAVYYCARYSYRGTNVRYDYWGQGTQVTVSS | high polyreactivity
QVQLVESGGGLVQAGGSLRLSCAASGRIFSHNAMGWYRQAPGKERELVAAISRSGGRTYYADSVKGRFTISRYNAKNTVYVQMKSLKPEDTAVYYCAADYRLKKSPGYSGEDDYWGQGTQVTVSS | high polyreactivity
QVQLVESGGGLVQAGGSLRLSCAASGRIFSHYAMGWYRQAPGKERELVAAITSDGSTNYADSVKGRFTISRDNAKNTVYLQMNSLKPEDTAVYYCADYDYWGQGTQVTVSS | low polyreactivity
QVQLVESGGGLVQAGGSLRLSCAASGRIFSINVMGWYRHAPGKERELVAAISKRGGSTYYADSVKGRFTISRDNAKNTVYLQMNSLKPEDTAVYYCAARRHYTYGNGPSRGGQMDYWGQGTQVTVSS | high polyreactivity
QVQLVESGGGLVQAGGSLRLSCAASGRIFSIYTMGWSRQAPGKERELVAAISASDGSTYYADSVKGRFTISRDNAKNTVYLQMNSLKPEDTAVYYCAIDTYPQKVTYGSFAYDYWGEGTQVTVSS | low polyreactivity
QVQLVESGGGLVQAGGSLRLSCAASGRIFSKNAMGWCRQAPGKERELVAGITSNSGSTYYADSVKGRFTISRDNAKNTVYLQMNSLIPEDTAVYYCAARFPHRHYLLYTYDYWGQGTQVTVSS | low polyreactivity
QVQLVESGGGLVQAGGSLRLSCAASGRIFSKNAMGWYRKAPGKERELVAAISWSGGSTYYADSVKGRFTISRDNAKNTVYLQMNSLKPEDTAVYYCAADSPRYGGYGYWGQGTQVTVSS | low polyreactivity
QVQLVESGGGLVQAGGSLRLSCAASGRIFSKYAMGWYRQAPGKERELVASIRWRGDRTYYADSVKGRFTISRDNAKNTVYLQMNSLKPEDTAVYYCAVETLWQGSEYWVQGTQVTVSS | low polyreactivity
QVQLVESGGGLVQAGGSLRLSCAASGRIFSLYAMGWYRQAPGKERELVAAITWSSGSTYYADSVKGRFTISRDNAKNTVYLQMNSLKPEDTAVYYCAARVFTLLGYSYEYWGQGTQVTVSS | low polyreactivity
QVQLVESGGGLVQAGGSLRLSCAASGRIFSNNAMGWYRQAPGKERELVAAITNSGGSTYYADSVKGRFTISRDNAKNTVYLQMNSLKPEDTAVYYCAADHLSVQYDVYWTYYYWGQGTQVTVSS | low polyreactivity
QVQLVESGGGLVQAGGSLRLSCAASGRIFSPNAMGWYRQAPGKERELVAAITRGGSTNYADSVKGRFTISRDNAKNTVYLQMNSLKPEDTAVYYCAAQLAKTIRGRGYNSWGQGTQVTVSS | low polyreactivity
QVQLVESGGGLVQAGGSLRLSCAASGRIFSPYAMGWYRQAPGKERELVAAINSIGGSTYYADSVKGRFTISRDNAKNTVYLQMNSLKPEDTAVYYCAVKWYRLGLIRWGGYWGQGTQVTVSS | high polyreactivity
QVQLVESGGGLVQAGGSLRLSCAASGRIFSQYDMGWYRPAPGKERELVAAISGGVGTNYADSVKGRFTISRDNAKNTVYLQMNSLKPEDTAVYYCAADYSFERSEYEYWGQGTQVTVSS | low polyreactivity

Sequence | polyreactivity (PSR sort gate)
QVQLVESGGGLVQAGGSLRLSCAASGRIFSRNAMGWYRPAPGKERELVAAISWRGGRTYYADSVKGRFTISRDNAKNTVYLQMNSLKPEDTAVYYCNAVYRLSHYDLDYWGQGTQVTVSS | high polyreactivity
QVQLVESGGGLVQAGGSLRLSCAASGRIFSRNAMGWYRQAPGKERELVAAISRRGGSTSYADSVKGRFTISRDNAMNTVYLQMNSLKPEDTAVYYCAAEDEYYCTRGYWYSRYDYWGQGTQVTVSS | high polyreactivity
QVQLVESGGGLVQAGGSLRLSCAASGRIFSRNTMGWYRQAPGKEREIVAAISQSGGRTYYADSVKGRFTISRDNAKNPVYLQMNSLNPEDTEVYYCNAQFARSSGFNYWGQGTQVTVSS | high polyreactivity
QVQLVESGGGLVQAGGSLRLSCAASGRIFSRYALGWYRQAPGKERELVAGITRSGTTTYYADSVKGRFTISRDNAKNTVYLQMNSLKPEDTAVYYCAAPPIGPNLYDYWGQGTQVTVSS | high polyreactivity
QVQLVESGGGLVQAGGSLRLSCAASGRIFSRYAMGGYRQAPGTERELVAAINNGGSTYYADSVKGRFTISRDNAKNTVYLQMNSLKPEDTAVYYCAKLWWSNFKPVEYWGQGTQVTVSS | low polyreactivity
QVQLVESGGGLVQAGGSLRLSCAASGRIFSRYAMGWYRQAPGKERELVAAISCNGCSTYYADSVKGRFTISRDNAKNTVYLQMNSLKPEDTAVYYCAAYRPGPYAAYGYWGQGTQVTVSS | high polyreactivity
QVQLVESGGGLVQAGGSLRLSCAASGRIFSRYAMGWYRQAPGKERELVAAITRGGSTYYADSVKGRFTISRDNAKNTVYLQMNSLKPEDTAVYYCAKDGYRPDDYGYWGQGTQVTVSS | high polyreactivity
QVQLVESGGGLVQAGGSLRLSCAASGRIFSRYTMGWYRQAPGKERELVAAISSRGGSTYYADSVKGRFTISRDNAKNTVYLQMNSLKREDTAVYYCNTPSYSGSSPYDHWGQGTQVTVSS | high polyreactivity
QVQLVESGGGLVQAGGSLRLSCAASGRIFSRYTMGWYRQAPGKERELVAAISSRGGSTYYADSVKVRFTISRDNAKNTVYLQMNSLKPEDTAVYYCNTPSYSGSSPYDHWGQGTQVTVSS | high polyreactivity
QVQLVESGGGLVQAGGSLRLSCAASGRIFSRYVMGWYRQAPGKERELVAAISWNGGSTYYADSVKGRFRISRDNAKNTVYFQMNSLIPEDTAVYYCAARVRVTGTYYTKYDYWGQGTQVTVSS | high polyreactivity
QVQLVESGGGLVQAGGSLRLSCAASGRIFSSNAMGWYRQAPGKERELVAAITKSGGGTYYADSVKGRFTISRDNAKNTVYLQMNSLKPEDSAVYYCAADHGRPYFSYDYWGQGTQVTVSS | low polyreactivity
QVQLVESGGGLVQAGGSLRLSCAASGRIFSSNAMGWYRQAPGTERELVAAITSGGSTYADSVKGRFTISRDNAKNTVYLQMNSLKPEDTAVYYCATRQGWYGWYGYWGQGTQVTVSS | high polyreactivity
QVQLVESGGGLVQAGGSLRLSCAASGRIFSSYAMGWYRQAPGKERELVAAISRGGSTYYADSVKGRFTISRDNAKNTVYLQMNSLKPEDTAVYYCAAASYSYSERRYYYWGQGTQVTVSS | high polyreactivity
QVQLVESGGGLVQAGGSLRLSCAASGRIFSSYVMGLYRQAPGKERELVAAIRWSGGSTYYADSVKGRFTISRDNAKNTVYLQMNSLKPEDTAVYYCAAEVYRYYATGYGYWGQGTQVTVSS | high polyreactivity
QVQLVESGGGLVQAGGSLRLSCAASGRIFSTNARGWYRQAPGKQRELVAVITGIGGITYYADSVKGRFTISSDNAKNTVYLKMNSLKPEDTAVYYCGADPISEFYWGVKDRYDYWGQGTQVTVSS | low polyreactivity
QVQLVESGGGLVQAGGSLRLSCAASGRIFSVKVMGWYRQAPGKERELVAAITWSVGSTYYADSVKGRFTISRDNPKNTVSLQMNSLKREDTAVYYCAARGPPVYGRVGGYHYWGQGTQVTVSS | low polyreactivity
QVQLVESGGGLVQAGGSLRLSCAASGRIFSVYAMGWYRQAPGTERELVAVITTSGGSTYYADSVKGRFTISRGNAKNTVYLQMNSLKPEDTAVYYCNAEPWSYAIGSYEYWGQGTQVTVSS | high polyreactivity
QVQLVESGGGLVQAGGSLRLSCAASGRIFSVYAMVWYRQAPGKEREFVAAITKGGVGTYYADSVKGRFTISRDNAKNTVYLQMNSLKPEDTAVYYFAARHYYGADRYYSWGQGTQVTVSS | high polyreactivity
QVQLVESGGGLVQAGGSLRLSCAASGRIFSVYARGWYRQAPGKERELVAAITWTGGRTYYADSVKGRFTISRDNAKNTVYLQMNSLKPEDTAVYYCAAQWVRSYQMYWGQGTQVTVSS | high polyreactivity
QVQLVESGGGLVQAGGSLRLSCAASGRIFSWNAMGWYRQAPGKERELVAAISSGGSTIYADSVKGRFTISRDNAKNTVYLQMNSLKPEYTAVYYCATRNGYSGTYGYWGQGTQVTVSS | low polyreactivity
QVQLVESGGGLVQAGGSLRLSCAASGRIFSYAMGWYRQAPGKEREFVAAIRWSGGRTYYADSVKGRFTISRDNAKNTVYLQMNSLKPEDTAVYYCARQGYTLYRTRYRYDYWGQGTQVTVSS | high polyreactivity
